{"source": "paper PMC5864733", "test_in_all_cases": "SEC", "key": {"[1]": {"target": "CsrA (residues 1-61), GST tag removed (enteropathogenic E. coli (EPEC) O127:H6 E2348/69) (UniProt P69913)"}, "[2]": {"target": "CsrA tetra-mutant (residues 1-61, R31A + K38A + H43A + R44A) (enteropathogenic E. coli (EPEC) O127:H6 E2348/69) (UniProt P69913)"}, "[3]": {"target": "CsrA-Cdel (residues 1-44) (enteropathogenic E. coli (EPEC) O127:H6 E2348/69) (UniProt P69913)"}, "[4]": {"target": "CesT-E121A (residues 1-156, E121A) (enteropathogenic E. coli (EPEC) O127:H6 E2348/69) (UniProt P21244)"}, "[5]": {"target": "CesT-Y152A (residues 1-156, Y152A) (enteropathogenic E. coli (EPEC) O127:H6 E2348/69) (UniProt P21244)"}, "[6]": {"target": "CesT-E121A/Y152A (residues 1-156, E121A + Y152A) (enteropathogenic E. coli (EPEC) O127:H6 E2348/69) (UniProt P21244)"}}}
{"substance": "CsrA (residues 1-61), GST tag removed, P69913 1-61 (natural protein; other documents disagree on this pair)", "values": [{"measurement": "stoichiometry N", "setting": "[1]", "result": 2}]}
{"substance": "CsrA tetra-mutant (residues 1-61, R31A + K38A + H43A + R44A) (from UniProt P69913 1-61) (natural protein)", "values": [{"measurement": "stoichiometry N", "setting": "[2]", "result": 2}]}
{"substance": "CsrA-Cdel (residues 1-44) (from UniProt P69913 1-44) (domain or fragment)", "values": [{"measurement": "stoichiometry N", "setting": "[3]", "result": 2}]}
{"substance": "CesT-E121A (residues 1-156, E121A) (from UniProt P21244 1-156) (natural protein)", "values": [{"measurement": "stoichiometry N", "setting": "[4]", "result": 2}]}
{"substance": "CesT-Y152A (residues 1-156, Y152A) (from UniProt P21244 1-156) (natural protein)", "values": [{"measurement": "stoichiometry N", "setting": "[5]", "result": 2}]}
{"substance": "CesT-E121A/Y152A (residues 1-156, E121A + Y152A) (from UniProt P21244 1-156) (natural protein)", "values": [{"measurement": "stoichiometry N", "setting": "[6]", "result": 2}]}
